For one test, the target named is T1, FLAG-tagged SOCS3 (Rattus norvegicus, UniProt O88583).
T1 construct: expressed in transfected cells; host or cells: HEK293T cells (transient transfection; cleared lysate used)
T1 sequence (O88583 1-225): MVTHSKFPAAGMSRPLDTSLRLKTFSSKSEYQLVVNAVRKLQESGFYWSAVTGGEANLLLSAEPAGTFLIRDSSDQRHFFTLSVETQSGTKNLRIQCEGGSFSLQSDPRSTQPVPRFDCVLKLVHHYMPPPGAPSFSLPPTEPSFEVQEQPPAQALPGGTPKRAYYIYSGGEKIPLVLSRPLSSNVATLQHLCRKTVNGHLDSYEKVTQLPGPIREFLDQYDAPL
In words: Phosphopeptide affinity chromatography with anti-FLAG Western blot: SOCS3 binding to biotinylated leptin receptor peptides. To be noted: lysates of about 3×10^7 HEK293T cells transfected with pMET7-fSOCS3; 5 nmoles biotinylated peptide on streptavidin-agarose; two hours at 4° C. From the text: Monoclonal anti-FLAG antibody M2 was obtained from Sigma. Mouse recombinant leptin was purchased from R&D Systems. Peptides were synthesized using standard Fmoc-amino-acid solid phase chemistry on an Applied Biosystems Model 431A peptide synthesizer. Biotin was manually esterified following similar procedures as on the synthesizer and added to the reaction mixture. Incorporation of phosphotyrosine was realized by using a protected Fmoc-tyrosine-phosphobenzylester (Novabiochem). After purification, the mass of the peptides was confirmed by mass spectrometry. Sequences of the peptides were biotin-QRQPSVK(p)Y985ATLVSNDK (SEQ ID NO:7) and biotin-NHREKSVC(p)Y1077 LGVTSVNR (SEQ ID NO:8).
Approximately 10^6 HEK293T cells were lysed in 150 μl 2× loading buffer. After sonication, 30 μl was loaded on a 10% polyacrylamide gel. […] Blotting efficiency was checked using PonceauS staining (Sigma).
For phosphopeptide affinity chromatography, approximately 3×10^7 HEK293T cells transiently transfected as indicated were lysed in lysis buffer (20 mM Hepes pH 7; 1 mM MgCl2; 10 mM KCl; 0.5 mM DTT; 150 mM NaCl; 0.5% NP40; 1 mM NaVO4; 5 mM NaF; 20% glycerol; Complete™ Protease Inhibitor Cocktail (Roche)). Precipitated material was cleared by 5 minutes centrifugation at 10,000 g. To eliminate a-specific interactions, supernatants were brought on a pre-column containing Sepharose 4B beads prior to phosphopeptide affinity chromatography on streptavidin-coupled agarose beads (Sigma). Peptide concentrations were determined by a colorimetric assay using alkaline hydrolysis and a ninhydrine reagent. Fifty μl of streptavidin-agarose slurry was incubated with 5 nmoles of peptide for each reaction. Cleared lysate was incubated for two hours at 4° C. under slow stirring. […]
The interaction sites of SOCS3 with the leptin receptor were confirmed using a biochemical approach. FLAG-tagged SOCS3 was expressed upon transient transfection of pMET7-fSOCS3 in HEK293T cells and was analyzed for binding to (phospho)-tyrosine-containing peptides matching the two motifs within the leptin receptor. […]
(In general: A western blot detects proteins with antibodies after separation by electrophoresis.)

For test [1], the system named is leptin receptor. In words: rPAP1-luciferase reporter assay of leptin signalling in HEK293T cells co-transfected with leptin receptor variants and SOCS3. It counts as cell-based, murine. The note with it: 24 hours leptin. As to the method: HEK293T cells were maintained in a 10% CO2 humidified atmosphere at 37° C. and grown using DMEM with 4500 mg/l glucose, 10% fetal bovine serum and 50 μg/ml gentamycin (all from LifeTechnologies). Typically, 4×10^5 cells were seeded the day before transfection in a 6-well plate and transfected overnight with approximately 2 μg plasmid DNA using a standard calcium phosphate precipitation procedure. One day after transfection, cells were re-suspended with Cell Dissociation Agent (LifeTechnologies), seeded in a black well plate (Costar) and stimulated overnight with […] leptin or left unstimulated.
(§1) Luciferase assays, binding assays using Leptin-SEAP and Northern blot hybridizations with SOCS3 and actin probes were described previously by Eyckerman et al. (1999). β-galactosidase activity was measured using the Galacto-Star™ chemiluminescent detection kit (Tropix) and a Topcount Chemiluminescence Counter (Packard).
Based on its functional similarity with the gp130 chain, the leptin receptor was tested for interaction with SOCS3. Leptin receptor variants containing Y to F mutations at positions Y985, Y1077, or at both sites, were tested in a functional assay based on rPAP1-induction. Signalling via the leptin receptor variants was analyzed upon transient transfection in HEK293T cells with the pXP2d2-rPAP11uci and the FLAG-tagged pMET7-fSOCS3 expression construct. Luciferase activity data were normalized by co-transfection with pUT651 and a β-galactosidase activity assay.
Expression of leptin receptor variants and SOCS3 were confirmed, respectively, by a binding assay using a leptin-SEAP fusion protein and Western blot analysis using an anti-FLAG antibody (FIG. 3). LR expression levels were measured on transfected cells by incubation for 90 minutes with Leptin-SEAP fusion protein with or without excess leptin (100×). The transfected cells were stimulated for 24 hours with leptin or left untreated. Luciferase measurements were performed in triplicate and were normalized by co-transfection with the pUT651 β-galactosidase construct and a β-galactosidase activity assay. The results indicated a strong inhibitory activity of SOCS3 (80-90% inhibition) when the wild-type or the mutant Y1077F leptin receptor was expressed, and a moderate inhibition (30-50% inhibition) upon expression of a Y985F receptor variant.
A general note: A reporter such as luciferase makes a cellular process visible.

The target in test [2] is murine leptin receptor, long isoform, Y985F (mouse), P48356. In words: cell-based or functional assay.
Chain of murine leptin receptor, long isoform, Y985F (mouse), P48356 (P48356 22-1162 Y985F): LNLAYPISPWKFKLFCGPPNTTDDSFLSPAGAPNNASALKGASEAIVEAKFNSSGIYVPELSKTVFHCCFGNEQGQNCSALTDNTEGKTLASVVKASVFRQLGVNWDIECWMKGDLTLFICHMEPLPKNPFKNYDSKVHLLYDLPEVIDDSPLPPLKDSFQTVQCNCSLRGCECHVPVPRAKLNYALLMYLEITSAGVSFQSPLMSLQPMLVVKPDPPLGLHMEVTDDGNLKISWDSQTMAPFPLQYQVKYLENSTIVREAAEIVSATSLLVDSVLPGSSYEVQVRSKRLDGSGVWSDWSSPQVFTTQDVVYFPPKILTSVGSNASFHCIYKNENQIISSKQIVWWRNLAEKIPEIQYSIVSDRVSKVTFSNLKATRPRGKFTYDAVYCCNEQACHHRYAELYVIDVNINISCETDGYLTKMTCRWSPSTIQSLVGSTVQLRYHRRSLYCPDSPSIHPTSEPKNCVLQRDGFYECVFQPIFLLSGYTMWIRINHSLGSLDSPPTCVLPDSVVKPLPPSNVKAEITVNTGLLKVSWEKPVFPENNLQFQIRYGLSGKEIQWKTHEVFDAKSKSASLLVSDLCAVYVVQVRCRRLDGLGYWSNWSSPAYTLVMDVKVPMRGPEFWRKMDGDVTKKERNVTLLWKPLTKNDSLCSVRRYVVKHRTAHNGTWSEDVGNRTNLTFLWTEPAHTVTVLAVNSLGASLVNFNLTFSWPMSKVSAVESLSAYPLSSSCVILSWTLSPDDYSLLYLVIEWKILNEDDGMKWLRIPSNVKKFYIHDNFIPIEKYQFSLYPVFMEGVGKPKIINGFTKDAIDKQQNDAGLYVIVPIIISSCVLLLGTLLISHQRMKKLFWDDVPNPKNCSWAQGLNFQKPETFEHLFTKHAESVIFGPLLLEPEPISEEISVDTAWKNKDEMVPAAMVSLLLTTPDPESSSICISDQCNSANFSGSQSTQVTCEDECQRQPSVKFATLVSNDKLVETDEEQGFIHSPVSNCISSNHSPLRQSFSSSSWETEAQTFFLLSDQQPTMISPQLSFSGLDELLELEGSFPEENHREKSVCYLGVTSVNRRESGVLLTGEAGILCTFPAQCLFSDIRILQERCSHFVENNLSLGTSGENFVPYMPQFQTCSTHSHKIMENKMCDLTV
Test [3] addresses murine leptin receptor, long isoform, Y1077F (mouse), P48356. Nature of the test: cell-based or functional assay.
Test [4] addresses murine leptin receptor, long isoform, wild type (mouse), P48356. Nature of the test: cell-based or functional assay.
Test [5] relates to leptin receptor. Nature of the test: Leptin-induced pGL3-rPAP1-luci reporter induction in PC12 LR8 cells transiently expressing SOCS3. Format: cell-based, mouse. To be noted: leptin 24 hours. The procedure:
FIG. 1: Expression of SOCS3 leads to inhibition of leptin-induced rPAP1 expression in PC12 cells. PC12 LR8 cells were co-transfected with a plasmid encoding SOCS3 (pMET7fSOCS3) or empty vector (mock, pMET7), and a pGL3-rPAP11 reporter construct. Forty-eight hours after transfection, the cells were stimulated with leptin or left untreated. Luciferase activity was measured in triplicate after 24 hours. CPS: absolute luminescence counts per second; NS: nonstimulated negative control.
Culture conditions and transient transfection procedures for PC12 and generation of the PC12LR8 cell line were as previously described. (Eyckerman et al., 1999; Waelput et al., 2000.)
as §1
Through representational difference analysis, a PCR-based differential expression screening in PC12 cells expressing the mouse leptin receptor, several leptin-induced transcripts (including SOCS3) were identified. In order to check the inhibitory role of SOCS3 on leptin signaling in the cell systems used, an expression vector containing rat SOCS3 was generated. […]

Chain of murine leptin receptor, long isoform, wild type (mouse), P48356 (P48356 22-1162): as the sequence (P48356 22-1162 Y985F) above, with F964Y counted along it
Chain of murine leptin receptor, long isoform, Y1077F (mouse), P48356 (P48356 22-1162 Y1077F): as the sequence (P48356 22-1162 Y985F) above, with F964Y, Y1056F counted along it

As for “biotin-QRQPSVK(p)Y985ATLVSNDK (SEQ ID NO:7) [non-phosphorylated peptide]”, on FLAG-tagged SOCS3, the “binding of SOCS3 to peptide (Western blot, anti-FLAG antibody)” value (“binding of SOCS3 to peptide” below) is on record as “did not bind any SOCS3 protein”.
As to “biotin-QRQPSVK(p)Y985ATLVSNDK (SEQ ID NO:7) [phosphorylated Y985 peptide]”, the “binding of SOCS3 to peptide” value on FLAG-tagged SOCS3 was “clear and specific binding”.
In the case of “biotin-NHREKSVC(p)Y1077 LGVTSVNR (SEQ ID NO:8) [phosphorylated Y1077 peptide]”, the “binding of SOCS3 to peptide” value at FLAG-tagged SOCS3 was “binds specifically to the phosphorylated Y1077 peptide, but apparently with a much lower affinity”.

B1: FLAG-tagged rat SOCS3 (expressed from pMET7fSOCS3), O88583 1-225 (protein)
chain: MDYKDDDDKMVTHSKFPAAGMSRPLDTSLRLKTFSSKSEYQLVVNAVRKLQESGFYWSAVTGGEANLLLSAEPAGTFLIRDSSDQRHFFTLSVETQSGTKNLRIQCEGGSFSLQSDPRSTQPVPRFDCVLKLVHHYMPPPGAPSFSLPPTEPSFEVQEQPPAQALPGGTPKRAYYIYSGGEKIPLVLSRPLSSNVATLQHLCRKTVNGHLDSYEKVTQLPGPIREFLDQYDAPL
With B1, the “inhibition of leptin signalling (rPAP1 luciferase)” value with leptin receptor [1] (Y985F receptor variant) was 30-50 % inhibition; in the test on leptin receptor [1] (double Y985/1077F mutant), “no inhibition was observed”; with leptin receptor [1] (mutant Y1077F leptin receptor) it was 80-90 % inhibition; with leptin receptor [1] (wild-type leptin receptor) it was 80-90 % inhibition. Further, the values for the inhibition of leptin-induced rPAP1 luciferase reporter in test [2], in test [3] and in test [4] were 30 to 50 % inhibition, 80 to 90 % inhibition and 80 to 90 % inhibition, respectively. Further, the “inhibition of leptin-mediated reporter induction” value with leptin receptor [5] is listed as “marked inhibition”.
